Assay results from PMC11116822, “Nuclear factor Y-A3b binds to the SINGLE FLOWER TRUSS promoter and regulates flowering time in tomato”.
Where a chain is given by its changes, count along the chain named.

T1: SlNF-YA3b (MBP-6His fusion) (Solanum lycopersicum (tomato) cv. AC)
T1 chain: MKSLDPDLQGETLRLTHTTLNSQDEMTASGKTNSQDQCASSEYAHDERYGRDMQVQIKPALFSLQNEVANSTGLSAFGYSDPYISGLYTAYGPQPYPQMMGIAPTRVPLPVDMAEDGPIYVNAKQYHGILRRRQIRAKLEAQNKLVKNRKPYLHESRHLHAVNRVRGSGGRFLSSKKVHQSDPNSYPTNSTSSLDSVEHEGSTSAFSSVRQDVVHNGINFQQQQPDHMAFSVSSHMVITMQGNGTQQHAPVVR

B1: SFT-box1 (dsDNA)
DNA 1: GAATCAAGACACGATGATATTGGGACGCTTTGGGGTGTAT
DNA 2: ATACACCCCAAAGCGTCCCAATATCATCGTGTCTTGATTC
B2: SFT-box1-m (dsDNA)
DNA 1: B1 DNA 1 with A19T, G22T, G23T
DNA 2: B1 DNA 2 with C18A, C19A, T22A
B3: SFT-box4-m (dsDNA)
DNA 1: TTAAATTATGTTTTCTTGGGGGGGGTTTCATTCCTTATTTA
DNA 2: TAAATAAGGAATGAAACCCCCCCCAAGAAAACATAATTTAA
B4: SFT-box4 (dsDNA)
DNA 1: B3 DNA 1 with G19A, G20T, G21T
DNA 2: B3 DNA 2 with C21A, C22A, C23T
B5: SFT-box7-m (dsDNA)
DNA 1: AGTTAGATCAGGCCGGCGGGGGAGACCTAATCCATAGTG
DNA 2: CACTATGGATTAGGTCTCCCCCGCCGGCCTGATCTAACT
B6: SFT-box7 (dsDNA)
DNA 1: AGTTAGATCAGGCCGGCCCAATAGACCTAATCCATAGTG
DNA 2: CACTATGGATTAGGTCTATTGGGCCGGCCTGATCTAACT
B7: SFT-box3 (dsDNA)
DNA 1: GTTAGATTGAAGTTAGTAATTGGTTATCCCACCGATGGATT
DNA 2: AATCCATCGGTGGGATAACCAATTACTAACTTCAATCTAAC
B8: SFT-box3-m (dsDNA)
DNA 1: B7 DNA 1 with A19T, G22T, G23T
DNA 2: B7 DNA 2 with C19A, C20A, T23A
B9: SFT-box2 (dsDNA)
DNA 1: TAGGGGTAAGGGTAAAATATTGGAAAAATCATTTAAATAT
DNA 2: ATATTTAAATGATTTTTCCAATATTTTACCCTTACCCCTA
B10: SFT-box2-m (dsDNA)
DNA 1: B9 DNA 1 with T20A, T21A, G22A, G23A
DNA 2: B9 DNA 2 with C18T, C19T, A20T, A21T
B11: SFT-box6-m (dsDNA)
DNA 1: CCCTTCACCTTAGCATCAAAAAATAGGATTTACTACGAG
DNA 2: CTCGTAGTAAATCCTATTTTTTGATGCTAAGGTGAAGGG
B12: SFT-box6 (dsDNA)
DNA 1: B11 DNA 1 with A19C, A20C, A23T
DNA 2: B11 DNA 2 with T17A, T20G, T21G
B13: SFT-box5-m (dsDNA)
DNA 1: ATGTTTTATCATAAAAATAAAAAATGTTTTTAATATTAATC
DNA 2: GATTAATATTAAAAACATTTTTTATTTTTATGATAAAACAT
B14: SFT-box5 (dsDNA)
DNA 1: B13 DNA 1 with A20T, A21T, A22G, A23G
DNA 2: B13 DNA 2 with T19C, T20C, T21A, T22A

Legend:
[1] = molecular target: T1, SlNF-YA3b (MBP-6His fusion); experiment: EMSA; EMSA on non-denaturing gels, FAM probes; buffer, salt, pH and temperature not stated; conditions: protein: recombinant; tags: MBP; 6xHis; label: FAM on forward strand (probe); blunt
[2] = molecular target: T1, SlNF-YA3b (MBP-6His fusion); experiment: competition; 10- and 30-fold excess vs FAM box 1; EMSA on non-denaturing gels, FAM probes; buffer, salt, pH and temperature not stated; conditions: protein: recombinant; tags: MBP; 6xHis; blunt
[3] = molecular target: T1, SlNF-YA3b (MBP-6His fusion); experiment: competition; 10- and 30-fold excess vs FAM box 4; EMSA on non-denaturing gels, FAM probes; buffer, salt, pH and temperature not stated; conditions: protein: recombinant; tags: MBP; 6xHis; blunt
[4] = molecular target: T1, SlNF-YA3b (MBP-6His fusion); experiment: competition; 10- and 30-fold excess vs FAM box 7; EMSA on non-denaturing gels, FAM probes; buffer, salt, pH and temperature not stated; conditions: protein: recombinant; tags: MBP; 6xHis; blunt
[5] = molecular target: T1, SlNF-YA3b (MBP-6His fusion); experiment: competition; 10- and 30-fold excess vs FAM box 3; EMSA on non-denaturing gels, FAM probes; buffer, salt, pH and temperature not stated; conditions: protein: recombinant; tags: MBP; 6xHis; blunt
[6] = molecular target: T1, SlNF-YA3b (MBP-6His fusion); experiment: competition; 10- and 30-fold excess vs FAM box 2; EMSA on non-denaturing gels, FAM probes; buffer, salt, pH and temperature not stated; conditions: protein: recombinant; tags: MBP; 6xHis; blunt
[7] = molecular target: T1, SlNF-YA3b (MBP-6His fusion); experiment: competition; 10- and 30-fold excess vs FAM box 6; EMSA on non-denaturing gels, FAM probes; buffer, salt, pH and temperature not stated; conditions: protein: recombinant; tags: MBP; 6xHis; blunt
[8] = molecular target: T1, SlNF-YA3b (MBP-6His fusion); experiment: competition; 10- and 30-fold excess vs FAM box 5; EMSA on non-denaturing gels, FAM probes; buffer, salt, pH and temperature not stated; conditions: protein: recombinant; tags: MBP; 6xHis; blunt

Binder | binding result [1] | other results
B1 | binds | 
B2 |  | binding result [2]: no binding
B3 |  | binding result [3]: no binding
B4 | binds | 
B5 |  | binding result [4]: no binding
B6 | binds | 
B7 | binds | 
B8 |  | binding result [5]: no binding
B9 | binds | 
B10 |  | binding result [6]: no binding
B11 |  | binding result [7]: no binding
B12 | binds | 
B13 |  | binding result [8]: no binding
B14 | binds | 
